Source: the supplement of paper PMC9233669
This sample holds only a part of the variants without activity.

How the values were obtained:
[1] = test system: biotinyl-Phe-oxazolone; assay: self-aminoacylation, catalytic enhancement (BFO) (fold over background); higher = more active; k-Seq, kA / k0A0; sequences stand for … in GGGAAUGGAUCCACAUCUACGAAUUC…UUCACUGCAGACUUGACGAAGCUG
Summary of the method: (§1)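 Mutagenized RNA pools with a 21-nt variable region (0.43 μM) reacted with each biotinyl-aminoacyl-oxazolone at 2–1250 μM. Reactions ran in 50 μL HEPES/NaCl/KCl/MgCl2/CaCl2 buffer with 5% acetonitrile, pH 6.9–7.0, for 90 minutes at room temperature. Streptavidin-captured RNA was quantified by triplicate qPCR and Illumina sequencing, and per-sequence fraction reacted was fit to a pseudo-first-order model with 1000 bootstraps. Catalytic enhancement is median kA divided by the uncatalyzed rate, the low-activity peak of a bimodal Gaussian fit.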

[2] = test system: biotinyl-Trp-oxazolone; assay: self-aminoacylation, catalytic enhancement (BWO) (fold over background); higher = more active; k-Seq, kA / k0A0; sequences stand for … in GGGAAUGGAUCCACAUCUACGAAUUC…UUCACUGCAGACUUGACGAAGCUG
Summary of the method: as §1

| Sequence | self-aminoacylation [1] | self-aminoacylation [2] |
| --- | --- | --- |
| AAACUUCAAACAAUCGGUCUG [Fam1A.1 aminoacylation ribozyme variant] | 30.9 | 18.7 |
| AAGAUUGCUAAUAGCCGCAAG [Fam3.1 aminoacylation ribozyme variant] |  | 2.47 |
| AAGCUUGAUAAUAGUCGCAAG [Fam3.1 aminoacylation ribozyme variant] | 2.72 | 2.02 |
| AAGGUUGCUAAUAGUCGCAGG [Fam3.1 aminoacylation ribozyme variant] | 3.23 | 2.28 |
| AAGUAUGCUAAUAGUCGCAAG [Fam3.1 aminoacylation ribozyme variant] | 22.9 | 6.46 |
| AAGUAUGCUAAUAGUCGCACG [Fam3.1 aminoacylation ribozyme variant] |  | 2.03 |
| AAGUUAGCUAAUAGUCGUAAG [Fam3.1 aminoacylation ribozyme variant] | 14 | 3.54 |
| AAGUUCUCUAAUAGUCGCAAG [Fam3.1 aminoacylation ribozyme variant] | 3.34 | 2.07 |
| AAGUUGGCUAAUAGUCUCAAG [Fam3.1 aminoacylation ribozyme variant] |  | 2.27 |
| AAGUUUGCCAAUUGUCGCAAG [Fam3.1 aminoacylation ribozyme variant] | 2.77 | 2.15 |
| AAGUUUGCGAAUAUUCGCAAG [Fam3.1 aminoacylation ribozyme variant] |  | 2.71 |
| AAGUUUGCUAGUAGUCGCAAA [Fam3.1 aminoacylation ribozyme variant] |  | 2.13 |
| AAUCACCUAGGUCAUAGGGUG [Fam2.2 aminoacylation ribozyme variant] |  | 2.15 |
| AAUCACCUAGGUCAUCAGGUG [Fam2.2 aminoacylation ribozyme variant] |  | 2.18 |
| ACAAACUUCAAGCAAUCGGUC [Fam1B.1 aminoacylation ribozyme variant] | 15 | 9.7 |
| ACACACUUCAAGCAAUCGGUC [Fam1B.1 aminoacylation ribozyme variant] | 27.1 | 13.1 |
| ACGUUUGCUAAUAGUCGCAAG [Fam3.1 aminoacylation ribozyme variant] | 9.06 | 3.66 |
| AGGUGUGCUAAUAGUCGCAAG [Fam3.1 aminoacylation ribozyme variant] | 5.87 | 2.52 |
| AUACAUCAAACAAUCGGUCUG [Fam1A.1 aminoacylation ribozyme variant] | 4.05 | 2.68 |
| AUACUUCAAACAAUCGGUCUG [Fam1A.1 aminoacylation ribozyme variant] | 14.7 | 9.11 |
| AUGUUUGCUAAUAGUCGCAAG [Fam3.1 aminoacylation ribozyme variant] | 12.9 | 4.22 |
| AUUACGCUGGUCAUCGAGCGA [Fam2.1 aminoacylation ribozyme variant] |  | 2.16 |
| AUUCACCUAGCUCGUCGGGUG [Fam2.2 aminoacylation ribozyme variant] | 4.07 |  |

| Sequence | self-aminoacylation [1] | self-aminoacylation [2] |
| --- | --- | --- |
| AUUCACCUAGGUCAUCGUGCG [Fam2.2 aminoacylation ribozyme variant] | 5.13 |  |
| AUUCACCUAGGUCCUCGUGUG [Fam2.2 aminoacylation ribozyme variant] | 5.79 |  |
| AUUCACCUAGGUGAUCGGGUC [Fam2.2 aminoacylation ribozyme variant] | 2.84 |  |
| AUUCACCUAGGUUAUCAGGUG [Fam2.2 aminoacylation ribozyme variant] |  | 2.12 |
| AUUCACCUAGUUCAUCGGGAG [Fam2.2 aminoacylation ribozyme variant] | 2.23 |  |
| AUUCACCUAGUUCAUCGGGUU [Fam2.2 aminoacylation ribozyme variant] | 5.74 |  |
| AUUCACCUCGGUCAUCAGGUG [Fam2.2 aminoacylation ribozyme variant] | 4.3 | 2.02 |
| AUUCAGCUAGGUCAUCGGAUG [Fam2.2 aminoacylation ribozyme variant] | 2.91 |  |
| AUUGACCUAGGUCAUCGGGAG [Fam2.2 aminoacylation ribozyme variant] | 3.29 | 2.04 |
| CAAAUUCAAACAAUCGGUCUG [Fam1A.1 aminoacylation ribozyme variant] | 6.39 | 3.94 |
| CAACAUCAAACAAUCGGUCUG [Fam1A.1 aminoacylation ribozyme variant] | 7.46 | 3.73 |
| CAACCCUUCAAGCAAUCGGUC [Fam1B.1 aminoacylation ribozyme variant] | 2.9 | 2.72 |
| CAACUUCAAACAAUCGGUCCG [Fam1A.1 aminoacylation ribozyme variant] | 5.44 | 4.86 |
| CAACUUCAAACAAUCGGUCUC [Fam1A.1 aminoacylation ribozyme variant] | 75.3 | 37.7 |
| CAGUUUCCUAAUAGUCGCAAG [Fam3.1 aminoacylation ribozyme variant] | 2.17 |  |
| CCAAACUUCAACCAAUCGGUC [Fam1B.1 aminoacylation ribozyme variant] | 43.8 | 27.5 |
| CCAAACUUCAAGCAAUCGGUU [Fam1B.1 aminoacylation ribozyme variant] | 5.01 | 4.36 |
| CCACAAUUCAACCAAUCGGUC [Fam1B.1 aminoacylation ribozyme variant] | 6.75 | 5.9 |
| CCACACUUCAAACAACCGGUC [Fam1B.1 aminoacylation ribozyme variant] | 2.26 |  |
| CCACACUUCAAAUAAUCGGUC [Fam1B.1 aminoacylation ribozyme variant] | 23.8 | 13.7 |
| CCACACUUCAAGAAUUCGGUC [Fam1B.1 aminoacylation ribozyme variant] | 7.52 |  |
| CCACACUUCAAUCGAUCGGUC [Fam1B.1 aminoacylation ribozyme variant] | 2.48 | 2.43 |
| CCACACUUCAAUGAAUCGGUC [Fam1B.1 aminoacylation ribozyme variant] | 14.4 | 10.3 |

| Sequence | self-aminoacylation [1] | self-aminoacylation [2] |
| --- | --- | --- |
| CCACUUCAAACAAUCAGUCUG [Fam1A.1 aminoacylation ribozyme variant] | 29.2 | 10.1 |
| CCACUUCAAACAAUCGAUCUG [Fam1A.1 aminoacylation ribozyme variant] | 4.61 |  |
| CCAGACUUCAAGUAAUCGGUC [Fam1B.1 aminoacylation ribozyme variant] | 11.5 | 8.35 |
| CCAUACUUCAACCAAUCGGUC [Fam1B.1 aminoacylation ribozyme variant] | 32.7 | 17.2 |
| CCAUACUUCAAUCAAUCGGUC [Fam1B.1 aminoacylation ribozyme variant] | 31.2 | 15.9 |
| CCCCAAUUCAAGCAAUCGGUC [Fam1B.1 aminoacylation ribozyme variant] | 7.89 | 7.09 |
| CCCCACUACAAGCAAUCGGUC [Fam1B.1 aminoacylation ribozyme variant] | 2.24 |  |
| CCCCACUUCAAGCAAUAGGUC [Fam1B.1 aminoacylation ribozyme variant] | 2.02 |  |
| CCUCACUUCAAGCAAUCGGAC [Fam1B.1 aminoacylation ribozyme variant] | 2.16 |  |
| CGACUUCAAACAACCGGUCUG [Fam1A.1 aminoacylation ribozyme variant] |  | 2.13 |
| CUAAAUCAAACAAUCGGUCUG [Fam1A.1 aminoacylation ribozyme variant] | 3.19 |  |
| CUAAUUCAAAUAAUCGGUCUG [Fam1A.1 aminoacylation ribozyme variant] | 2.58 |  |
| CUACAUCAAACAAGCGGUCUG [Fam1A.1 aminoacylation ribozyme variant] | 4.11 |  |
| CUACGUCAAACAAUUGGUCUG [Fam1A.1 aminoacylation ribozyme variant] | 2.06 |  |
| CUACGUCAAACGAUCGGUCUG [Fam1A.1 aminoacylation ribozyme variant] | 3.76 |  |
| CUACUUCAAACAAUCUGUCUG [Fam1A.1 aminoacylation ribozyme variant] | 3.23 |  |
| CUACUUCAGACAUUCGGUCUG [Fam1A.1 aminoacylation ribozyme variant] | 6.22 |  |
| CUACUUGAAACACUCGGUCUG [Fam1A.1 aminoacylation ribozyme variant] | 3.53 |  |
| CUUCAUCAAACAAUCGGUCUG [Fam1A.1 aminoacylation ribozyme variant] | 2.05 |  |
| GUACUUUAAACAAUCGGUCUG [Fam1A.1 aminoacylation ribozyme variant] |  | 2.08 |
| UAGUUGGCUAAUAGUCGCAAG [Fam3.1 aminoacylation ribozyme variant] | 2.38 |  |
| UAGUUUGCUCAUAGUCGCAAG [Fam3.1 aminoacylation ribozyme variant] | 2.67 |  |
| UUUACCCUGGUCGUCGAGUGA [Fam2.1 aminoacylation ribozyme variant] | 5.7 |  |
